Assay results: patent US20150307617A1 (Genentech, published 2015)

T1: human OX40 expressed on the cell surface (Hut78-hOX40 cells; human T cells) (human, UniProt P43489 29-277)
T1 construct: Hut78 T cell line stably transfected or retrovirally transduced with human OX40, or native OX40 on human peripheral blood T cells; also called huOX40; Hut78-OX40
T1 sequence: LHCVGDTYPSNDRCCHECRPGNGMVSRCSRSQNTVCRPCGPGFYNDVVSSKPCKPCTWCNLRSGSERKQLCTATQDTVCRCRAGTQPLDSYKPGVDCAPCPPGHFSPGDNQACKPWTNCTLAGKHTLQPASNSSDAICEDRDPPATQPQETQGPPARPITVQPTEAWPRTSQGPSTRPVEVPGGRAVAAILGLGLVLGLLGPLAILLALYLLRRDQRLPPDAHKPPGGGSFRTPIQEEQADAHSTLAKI

T2: rat OX40 on T cells (rat, UniProt P15725 20-271)
T2 construct: whole, on cells
T2 sequence (looked up): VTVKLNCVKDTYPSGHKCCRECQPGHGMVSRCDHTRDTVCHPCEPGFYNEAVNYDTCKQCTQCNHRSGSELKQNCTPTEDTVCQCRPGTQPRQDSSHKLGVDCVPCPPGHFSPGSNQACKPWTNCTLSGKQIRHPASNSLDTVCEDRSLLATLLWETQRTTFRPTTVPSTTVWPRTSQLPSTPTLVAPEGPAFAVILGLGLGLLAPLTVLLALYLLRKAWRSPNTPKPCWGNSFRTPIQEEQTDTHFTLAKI

T3: mouse OX40 on T cells (mouse, UniProt P47741 20-272)
T3 construct: whole, on cells
T3 sequence (looked up): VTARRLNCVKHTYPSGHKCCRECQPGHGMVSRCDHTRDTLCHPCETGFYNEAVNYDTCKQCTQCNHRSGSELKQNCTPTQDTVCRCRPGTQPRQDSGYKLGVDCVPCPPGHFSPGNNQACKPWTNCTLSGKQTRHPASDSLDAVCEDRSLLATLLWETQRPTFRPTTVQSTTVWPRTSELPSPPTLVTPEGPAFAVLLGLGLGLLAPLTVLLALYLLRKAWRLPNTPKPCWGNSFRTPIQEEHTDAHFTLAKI


How the values were obtained:
[1] = molecular target: T1, human OX40 expressed on the cell …; experiment: flow cytometry competition on Hut78-hOX40 cells: OX40L-flag titrated first, then 200 ng/mL 1A7.gr.1-Alexa Fluor 647 added; readout is the MFI of 1A7.gr.1
Method: (§1) After 30 min of incubation at 4 C, cells were washed twice in Wash Buffer (PBS/0.5% FBS/2 mM EDTA), followed by data acquisition on FACSCantoII flow cytometer (BD). Data were then analyzed by Flowjo program (TreeStar) and the mean fluorescent intensity (MFI) was captured. […] A titration of OX40L-flag binding was carried out in a similar fashion, except that OX40L-flag was titrated 3 fold down starting from 10 ug/mL.
After 30 min of incubation at 4 C, cells were washed twice in Wash Buffer, followed by data acquisition on FACSCantoII flow cytometer (BD).

[2] = molecular target: T1, human OX40 expressed on the cell …; experiment: flow cytometry titration of OX40L-flag on Hut78-hOX40 cells, 3-fold dilutions from 10 ug/mL, detected with anti-flag-Alexa Fluor 555
Method: as §1

[3] = molecular target: T4, cynomolgus monkey OX40 on T cells (cynomolgus monkey); experiment: flow cytometry, Alexa Fluor 647-labeled antibody on cynomolgus monkey T cells, average (± SD)
T4 construct: whole, on cells; also called cynomolgus OX40
Method: (§2) Cells were blocked with 10% human, cynomolgus monkey, rat or mouse serum respectively in PBS for 15 minutes at 4° C. and plated in a 96 well plate at the equivalent of 100 μL of whole blood per reaction.

[4] = molecular target: T4, cynomolgus monkey OX40 on T cells; experiment: flow cytometry, Alexa Fluor 647-labeled antibody on cynomolgus monkey T cells, assay 2
Method: as §2

rat OX40 on T cells = molecular target: T2, rat OX40 on T cells; experiment: flow cytometry, Alexa Fluor 647-labeled antibody on peripheral blood T cells
mouse OX40 on T cells = molecular target: T3, mouse OX40 on T cells; experiment: as above
[5] = molecular target: T4, cynomolgus monkey OX40 on T cells; experiment: flow cytometry, Alexa Fluor 647-labeled antibody on cynomolgus monkey T cells, average in molar units
Method: as §2

[6] = molecular target: T4, cynomolgus monkey OX40 on T cells; experiment: flow cytometry, Alexa Fluor 647-labeled antibody on cynomolgus monkey T cells, assay 1
Method: as §2

Row | Binder | IC50 (read off the curve) [1] | EC50 (read off the curve) [2] | EC50 [3] | EC50 [4] | binding result (rat OX40 on T cells) | binding result (mouse OX40 on T cells) | EC50 [5] | EC50 [6]
1 | Human OX40L-flag (ligand, UniProt P23510 51-183, looked up, Made at Genentech; not shown: flag tag) QVSHRYPRIQSIKVQFTEYKKEKGFILTSQKEDEIMKVQNNSVIINCDGFYLISLKGYFSQEVNISLHYQKDEEPLFQLKKVRSVNSLMVASLTYKDKVYLNVTTDNTSLDDFHVNGGELILIHQNPGEFCVL | ~0.2 µg/mL | ~0.2 µg/mL | – | – | – | – | – | –
2 | 1A7.gr.1 (antibody, V domains shown, human IgG1; 125I-labeled (radioligand assay) or Alexa Fluor 647-labeled (flow cytometry) in some assays; also called mab 1A7.gr.1; MOXR0916) VH: EVQLVQSGAEVKKPGASVKVSCKASGYTFTDSYMSWVRQAPGQGLEWIGDMYPDNGDSSYNQKFRERVTITRDTSTSTAYLELSSLRSEDTAVYYCVLAPRWYFSVWGQGTLVTVSS VL: DIQMTQSPSSLSASVGDRVTITCRASQDISNYLNWYQQKPGKAPKLLIYYTSRLRSGVPSRFSGSGSGTDFTLTISSLQPEDFATYYCQQGHTLPPTFGQGTKVEIK | – | – | 0.142 µg/mL | 0.142 µg/mL | no binding (tested: titrated from 9 µg/mL) | no binding (tested: titrated from 9 µg/mL) | 0.946 nM | 0.143 µg/mL
